Consider 1 molecule from US20220242962A1 (APTEVO RESEARCH AND DEVELOPMENT, published 2022).

Experiment [1] concerns the target T1, Full-length Cyno 4-1BB (cynomolgus monkey, UniProt Q07011 24-255 (human entry)).
T1 construct: on Jurkat or CHO cells; also called FOB006; cynomolgus 4-1BB
T1 chain: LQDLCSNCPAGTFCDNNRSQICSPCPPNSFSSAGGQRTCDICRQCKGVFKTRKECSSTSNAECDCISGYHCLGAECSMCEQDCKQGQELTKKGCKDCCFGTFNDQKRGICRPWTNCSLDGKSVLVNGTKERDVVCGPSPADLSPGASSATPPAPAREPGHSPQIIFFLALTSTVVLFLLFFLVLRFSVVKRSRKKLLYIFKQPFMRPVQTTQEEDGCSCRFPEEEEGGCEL
Briefly: binding to cells expressing full length cyno 41BB.

For experiment [2], the target named is T2, Full-length Human 4-1BB (human, UniProt Q07011 24-255).
T2 construct: also called FOB005; CD137
The experiment in a line: binding to cells expressing full length human 41BB.

B1: Clone 6 anti-41BB murine monoclonal antibody (antibody, V domains shown)
VH: QVQLQQPGAELVKPGASVKLSCKASGYTFTSYWINWVKQRPGQGLEWIGNIYPGSSTTNYNEKFKSKATLTVDTSSSTAYMQLSSLTSDDSAVFYCASFSDGYYAYAMDYWVQGTSVTVSS
VL: DIQMTQTTSSLSASLGDRVTITCRASQDISNYLNWYQQKPDGTVKLLIYYTSRLHSGVPSRFSGGGSGTDYSLTISNLEQEDIATYFCQQGYTLPYTFGGGTKLEIK
notes: hybridoma-derived mouse antibody; also called mAb Clone 6; mouse clone 6
Consider B1, for which the binding result in experiment [1] and in experiment [2] was “binds” each time.
